{
  "source": "patent US9827216B2",
  "about": "“Nutritional support to prevent and/or mitigate bone marrow toxicity from a cancerous tumor” (Nestec S.A., priority 2008, dated 2017)",
  "key": {"immune cells": {"tested_on": "immune cells", "experiment": "Nutritional intervention on immune cells in tumor burdened animals with and without chemotherapy (FIG. 11)", "assay_type": "in vivo", "source_text": "FIG. 11 illustrates a graph of the effect of nutritional intervention on immune cells in tumor burdened animals with and without chemotherapy in accordance with an embodiment of the present disclosure."}, "[1]": {"tested_on": "red blood cell, white blood cell and immune cell populations", "experiment": "Haematological evaluation and flow cytometric analysis, test diets with chemotherapy (Example 2)", "assay_type": "in vivo, mice", "experimental": "The animals were distributed into 7 different group diets. There was a control group that received the diet AIN 93 for adult rodents (maintenance). Test diets were administered in doses appropriate to the animal model: (a) Ctrl diet were supplemented with 1% (w/w) L-arginine, (b) 25% of the protein was replaced by glutamine, (c) 1% (w/w) L-citrulline, (d) 1 g/Kg body weight with active hexose correlated compound, (e) 20 mg/day of RNA nucleotides and (f) 25 mg/day of lactoferrin. […] Control animals without chemotherapeutic treatment were run in parallel for all tested diets. Body weight was assessed every two days. Blood samples were obtained at day 2, 4 and 10 after the chemo-treatment and at sacrifice (14 or 28 days). An autopsy was performed and tumor mass was assessed."}},
  "data": [
    {"molecule": "lactoferrin: diet with 25 mg/day of lactoferrin (protein, UniProt P24627 20-708, looked up) Lactotransferrin: APRKNVRWCTISQPEWFKCRRWQWRMKKLGAPSITCVRRAFALECIRAIAEKKADAVTLDGGMVFEAGRDPYKLRPVAAEIYGTKESPQTHYYAVAVVKKGSNFQLDQLQGRKSCHTGLGRSAGWIIPMGILRPYLSWTESLEPLQGAVAKFFSASCVPCIDRQAYPNLCQLCKGEGENQCACSSREPYFGYSGAFKCLQDGAGDVAFVKETTVFENLPEKADRDQYELLCLNNSRAPVDAFKECHLAQVPSHAVVARSVDGKEDLIWKLLSKAQEKFGKNKSRSFQLFGSPPGQRDLLFKDSALGFLRIPSKVDSALYLGSRYLTTLKNLRETAEEVKARYTRVVWCAVGPEEQKKCQQWSQQSGQNVTCATASTTDDCIVLVLKGEADALNLDGGYIYTAGKCGLVPVLAENRKSSKHSSLDCVLRPTEGYLAVAVVKKANEGLTWNSLKDKKSCHTAVDRTAGWNIPMGLIVNQTGSCAFDEFFSQSCAPGADPKSRLCALCAGDDQGLDKCVPNSKEKYYGYTGAFRCLAEDVGDVAFVKNDTVWENTNGESTADWAKNLNREDFRLLCLDGTRKPVTEAQSCHLAVAPNHAVVSRSDRAAHVKQVLLHQQALFGKNGKNCPDKFCLFKSETKNLLFNDNTECLAKLGGRPTYEEYLGTEYVTAIANLKKCSTSPLLEACAFLTR", "values": [
      {"measurement": "toxicity (immune cells)", "setting": "immune cells; chemotherapy treated group as compared to the control (FIG. 11)", "result": "less toxicity"},
      {"measurement": "immune cell population / concentration", "setting": "immune cells; during the second phase (tumor-induced toxicity)", "result": "increase in their immune cell population"},
      {"measurement": "Global lymphocyte population", "setting": "[1]; following chemotherapy, supplemented diets", "result": "less depressed"},
      {"measurement": "leukocytic increase (white blood cell counts)", "setting": "[1]; oxaliplatin treated animals, supplemented diet 25 mg/day", "result": "tended to be higher"}
    ]}
  ]
}
